Test results taken from patent US20170218369, “AN ANTAGONISTIC PD-1 APTAMER AND ITS APPLICATIONS IN CANCER THERAPY RELATED APPLICATIONS” (Academia Sinica, published 2017).

Tests used:
[1] = biological target: PD-1 (programmed cell death protein 1) extracellular domain (UniProt Q15116 Q15116:25-170); experiment: filter; total binding assay
[2] = biological target: T1, PD-1 (programmed cell death protein 1) (Mus musculus, UniProt Q02242 Q02242:25-169); experiment: ELONA; +++ class; settings: tags: His tag, immobilized on Ni-NTA plate; label: 5'-biotin
Method: (§1) Briefly, 200 ng of histidine-tag labeled PD-1 receptors (His tag-PD1 protein) were coated on nickel-nitrilotriacetic acid (Ni-NTA) coated plates and treated with aptamers conjugated at their 5′ end to biotin (Biotin-PD-1 aptamer). Binding of the aptamers to PD-1 was detected using streptavidin-HRP and ECL substrate. The aptamers tested were:
(§2) The above aptamers were tested for binding to human, mouse, rat, rhesus monkey and/or canine PD-1 using the in vitro PD-1 binding assay depicted in FIG. 9.

[3] = biological target: T1, PD-1 (programmed cell death protein 1); experiment: ELONA; ++ class; settings: tags: His tag, immobilized on Ni-NTA plate; label: 5'-biotin
Method: as §1, §2

[4] = biological target: PD-1 (programmed cell death protein 1) (Homo sapiens, UniProt Q15116 Q15116:25-170); experiment: competition; inhibition of PD-1/PD-L1 interaction; settings: tags: His tag, immobilized on Ni-NTA plate
Method: Each of the above aptamer nucleotide sequences were tested for PD-1 antagonistic activity using an in vitro competition assay. Briefly, 200 ng of histidine-tag labeled PD-1 receptors (His tag-PD1 protein) were coated on nickel-nitrilotriacetic acid (Ni-NTA) coated plates and treated with Fc-labeled PDL-1 protein/aptamer mixture. Protein G-HRP and ECL substrate was used to determine the binding signal. The PD-1 antagonistic antibody J116 was used as a positive control and the negative control was performed in the absence of aptamer or antibody. A schematic representation of the competition assay is shown in FIG. 8, panels A and B. Each of the aptamer sequences (Cores 1-6 and Core 1(optimized)) were tested in the in vitro competition assay at a concentration of 200 nM. In the competition assay, each aptamer nucleotide sequence inhibited the interaction between PD-1 and PDL-1 as shown in FIG. 6.

T1 sequence (Q02242 25-169, one chain of several): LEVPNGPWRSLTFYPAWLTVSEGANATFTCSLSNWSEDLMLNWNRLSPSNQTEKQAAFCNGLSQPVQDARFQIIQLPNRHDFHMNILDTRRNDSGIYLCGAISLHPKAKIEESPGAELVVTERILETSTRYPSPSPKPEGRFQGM
Chain of PD-1 (programmed cell death protein 1) extracellular domain (Q15116 25-170, one chain of several): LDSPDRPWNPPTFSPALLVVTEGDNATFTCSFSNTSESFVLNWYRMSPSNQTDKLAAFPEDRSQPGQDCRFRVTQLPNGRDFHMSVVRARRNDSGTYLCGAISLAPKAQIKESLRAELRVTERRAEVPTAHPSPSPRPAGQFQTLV
Chain of PD-1 (programmed cell death protein 1) (Homo sapiens, UniProt Q15116 Q15116:25-170) (Q15116 25-170, one chain of several): as above

B1: PD16 (ssDNA)
DNA: TCCCTACGGCGCTAACTGATCACAAGAATAACTATCCCATCTCCCTGCCACCGTGCTACAAC
Kd [1]: 2.1 nM

TATATTGTCC (ssDNA) [Core 2 (5'-biotin)]
Kd [2]: < 20 nM

B2: PD100 (5'-biotin) (ssDNA)
DNA: TCCCTACGGCGCTAACCCTCCCCTAGTATATATTGTCCTCGTCTATGCCACCGTGCTACAAC
Kd [3]: 44.7 nM

CCATCTCCC (ssDNA) [Core 1 (5'-biotin)]
Kd [3]: 44.7 nM

B3: PD7 (ssDNA)
DNA: TCCCTACGGCGCTAACCTTCCATCTCCCATGCTTAGTCAAACATACGCCACCGTGCTACAAC
Kd [1]: 9.7 nM

B4: PD7 (5'-biotin) (ssDNA)
DNA: TCCCTACGGCGCTAACCTTCCATCTCCCATGCTTAGTCAAACATACGCCACCGTGCTACAAC
Kd [2]: < 20 nM

CCATCTCCC (ssDNA) [Core 1]
IC50 [4]: 31.2 nM
